Experimental data published in patent US20160200782A1.

Columns and labels:
Test in all cases: cell-based or functional assay
[1] = target: CDK7/cyclinH/MAT1(h) (human) (UniProt P50613)
GSK3β(h) (human) = GSK3β(h) (human) (UniProt P49841)
MKK6(h) (human) = MKK6(h) (human) (UniProt P52564)
PKCβII(h) (human) = PKCβII(h) (human) (UniProt P05771)
MSK2(h) (human) = MSK2(h) (human) (UniProt O75676)
eEF-2K(h) (human) = eEF-2K(h) (human) (UniProt O00418)
PrKX(h) (human) = PrKX(h) (human) (UniProt P51817)
SAPK3(h) (human) = SAPK3(h) (human) (UniProt P53778)
cSRC(h) (human) = cSRC(h) (human) (UniProt P12931)
TSSK1(h) (human) = TSSK1(h) (human) (UniProt Q9BXA7)
[2] = target: IGF-1R(h), activated (human) (UniProt P08069)
EGFR(h) (human) = EGFR(h) (human) (UniProt P00533)
PDGFRα(h) (human) = PDGFRα(h) (human) (UniProt P16234)
Flt4(h) (human) = Flt4(h) (human) (UniProt P35916)
DMPK(h) (human) = DMPK(h) (human) (UniProt Q09013)
Lyn(h) (human) = Lyn(h) (human) (UniProt P07948)
WNK2(h) (human) = WNK2(h) (human) (UniProt Q9Y3S1)
Arg(h) (human) = Arg(h) (human) (UniProt P42684)
EphB1(h) (human) = EphB1(h) (human) (UniProt P54762)
NEK11(h) (human) = NEK11(h) (human) (UniProt Q8NG66)
Met(Y1248C)(h) (human) = Met(Y1248C)(h) (human) (UniProt P08581)
JNK3(h) (human) = JNK3(h) (human) (UniProt P53779)
MLCK(h) (human) = target: MLCK(h) (human)
BrSK2(h) (human) = BrSK2(h) (human) (UniProt Q8IWQ3)
BrSK1(h) (human) = BrSK1(h) (human) (UniProt Q8TDC3)
IR(h) (human) = IR(h) (human) (UniProt P06213)
SAPK2a(T106M)(h) (human) = SAPK2a(T106M)(h) (human) (UniProt Q16539)
CaMKI(h) (human) = CaMKI(h) (human) (UniProt Q14012)
LKB1(h) (human) = LKB1(h) (human) (UniProt Q15831)
Met(D1246N)(h) (human) = Met(D1246N)(h) (human) (UniProt P08581)
TLK2(h) (human) = TLK2(h) (human) (UniProt Q86UE8)
CDK5/p25(h) (human) = CDK5/p25(h) (human) (UniProt Q00535)
BTK(h) (human) = BTK(h) (human) (UniProt Q06187)
MST1(h) (human) = MST1(h) (human) (UniProt Q13043)
VRK2(h) (human) = VRK2(h) (human) (UniProt Q86Y07)
Hck(h) (human) = Hck(h) (human) (UniProt P08631)
EGFR(L858R)(h) (human) = EGFR(L858R)(h) (human) (UniProt P00533)
SIK(h) (human) = SIK(h) (human) (UniProt P57059)
PKCτ(h) (human) = target: PKCτ(h) (human)
MARK1(h) (human) = MARK1(h) (human) (UniProt Q9P0L2)
Fms(h) (human) = Fms(h) (human) (UniProt P07333)
SGK2(h) (human) = SGK2(h) (human) (UniProt Q9HBY8)
PKCε(h) (human) = PKCε(h) (human) (UniProt Q02156)
LOK(h) (human) = LOK(h) (human) (UniProt O94804)
MSSK1(h) (human) = MSSK1(h) (human) (UniProt Q9UPE1)
BTK(R28H)(h) (human) = BTK(R28H)(h) (human) (UniProt Q06187)
CaMKIIβ(h) (human) = CaMKIIβ(h) (human) (UniProt Q13554)
Fer(h) (human) = Fer(h) (human) (UniProt P16591)
MuSK(h) (human) = MuSK(h) (human) (UniProt O15146)
PKCµ(h) (human) = PKCµ(h) (human) (UniProt Q15139)
Met(Y1248H)(h) (human) = Met(Y1248H)(h) (human) (UniProt P08581)
PhKγ2(h) (human) = PhKγ2(h) (human) (UniProt P15735)
GRK6(h) (human) = GRK6(h) (human) (UniProt P43250)
Haspin(h) (human) = Haspin(h) (human) (UniProt Q8TF76)
Fes(h) (human) = Fes(h) (human) (UniProt P07332)
JNK2α2(h) (human) = JNK2α2(h) (human) (UniProt P45984)
MST3(h) (human) = MST3(h) (human) (UniProt Q9Y6E0)

Sequence of eEF-2K(h) (human) (O00418 whole entry): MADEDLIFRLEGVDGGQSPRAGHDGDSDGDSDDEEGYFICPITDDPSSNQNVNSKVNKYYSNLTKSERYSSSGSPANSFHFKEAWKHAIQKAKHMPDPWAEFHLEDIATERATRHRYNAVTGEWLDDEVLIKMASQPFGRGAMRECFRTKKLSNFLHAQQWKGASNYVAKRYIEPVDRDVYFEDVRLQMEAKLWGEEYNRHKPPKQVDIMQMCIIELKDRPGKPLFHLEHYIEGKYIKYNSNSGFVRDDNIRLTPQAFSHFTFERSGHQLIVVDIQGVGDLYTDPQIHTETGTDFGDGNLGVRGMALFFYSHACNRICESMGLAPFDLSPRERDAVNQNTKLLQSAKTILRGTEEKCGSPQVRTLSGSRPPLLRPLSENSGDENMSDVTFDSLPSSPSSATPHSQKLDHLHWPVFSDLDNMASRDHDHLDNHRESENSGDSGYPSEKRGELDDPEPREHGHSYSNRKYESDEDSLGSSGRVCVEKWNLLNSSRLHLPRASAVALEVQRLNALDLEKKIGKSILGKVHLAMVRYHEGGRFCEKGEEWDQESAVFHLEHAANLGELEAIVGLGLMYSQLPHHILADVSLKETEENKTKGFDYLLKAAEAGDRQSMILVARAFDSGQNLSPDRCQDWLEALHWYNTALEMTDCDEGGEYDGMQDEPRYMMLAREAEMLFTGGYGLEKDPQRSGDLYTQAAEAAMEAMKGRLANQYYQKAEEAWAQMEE
Sequence of MuSK(h) (human) (O15146 517-869 limits assumed): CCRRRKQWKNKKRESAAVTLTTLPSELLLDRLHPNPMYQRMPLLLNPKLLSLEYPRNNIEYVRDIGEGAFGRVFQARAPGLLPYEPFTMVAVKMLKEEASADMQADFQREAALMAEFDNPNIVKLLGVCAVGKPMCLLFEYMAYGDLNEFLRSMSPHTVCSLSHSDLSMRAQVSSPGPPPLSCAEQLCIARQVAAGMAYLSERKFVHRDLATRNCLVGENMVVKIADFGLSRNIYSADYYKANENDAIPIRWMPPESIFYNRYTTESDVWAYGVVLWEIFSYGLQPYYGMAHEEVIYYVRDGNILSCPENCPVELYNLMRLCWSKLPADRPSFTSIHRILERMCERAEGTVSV
Sequence of MSSK1(h) (human) (Q9UPE1 whole entry): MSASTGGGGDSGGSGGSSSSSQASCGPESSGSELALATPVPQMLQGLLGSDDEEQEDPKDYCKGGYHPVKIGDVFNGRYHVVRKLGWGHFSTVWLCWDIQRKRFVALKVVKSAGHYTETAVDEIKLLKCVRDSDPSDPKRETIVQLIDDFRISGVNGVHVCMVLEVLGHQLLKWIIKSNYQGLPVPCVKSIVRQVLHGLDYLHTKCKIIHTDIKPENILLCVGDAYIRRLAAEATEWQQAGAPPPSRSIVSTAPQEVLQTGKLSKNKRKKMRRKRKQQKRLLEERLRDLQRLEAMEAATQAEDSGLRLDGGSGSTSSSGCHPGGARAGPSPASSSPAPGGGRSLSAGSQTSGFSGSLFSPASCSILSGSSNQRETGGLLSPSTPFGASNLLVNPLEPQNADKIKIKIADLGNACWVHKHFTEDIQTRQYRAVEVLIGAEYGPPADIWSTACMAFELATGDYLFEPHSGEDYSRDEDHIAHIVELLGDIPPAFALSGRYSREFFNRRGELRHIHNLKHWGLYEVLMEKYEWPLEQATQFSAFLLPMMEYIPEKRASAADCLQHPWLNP
Sequence of Hck(h) (human) (P08631 251-518 limits assumed): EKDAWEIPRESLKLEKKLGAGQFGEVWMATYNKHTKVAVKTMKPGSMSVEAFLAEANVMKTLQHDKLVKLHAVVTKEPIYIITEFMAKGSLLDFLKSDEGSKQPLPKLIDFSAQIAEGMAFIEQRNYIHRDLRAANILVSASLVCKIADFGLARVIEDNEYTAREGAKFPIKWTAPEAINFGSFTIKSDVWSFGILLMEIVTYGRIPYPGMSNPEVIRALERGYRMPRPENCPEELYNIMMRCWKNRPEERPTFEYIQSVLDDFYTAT
Sequence of GRK6(h) (human) (P43250 whole entry): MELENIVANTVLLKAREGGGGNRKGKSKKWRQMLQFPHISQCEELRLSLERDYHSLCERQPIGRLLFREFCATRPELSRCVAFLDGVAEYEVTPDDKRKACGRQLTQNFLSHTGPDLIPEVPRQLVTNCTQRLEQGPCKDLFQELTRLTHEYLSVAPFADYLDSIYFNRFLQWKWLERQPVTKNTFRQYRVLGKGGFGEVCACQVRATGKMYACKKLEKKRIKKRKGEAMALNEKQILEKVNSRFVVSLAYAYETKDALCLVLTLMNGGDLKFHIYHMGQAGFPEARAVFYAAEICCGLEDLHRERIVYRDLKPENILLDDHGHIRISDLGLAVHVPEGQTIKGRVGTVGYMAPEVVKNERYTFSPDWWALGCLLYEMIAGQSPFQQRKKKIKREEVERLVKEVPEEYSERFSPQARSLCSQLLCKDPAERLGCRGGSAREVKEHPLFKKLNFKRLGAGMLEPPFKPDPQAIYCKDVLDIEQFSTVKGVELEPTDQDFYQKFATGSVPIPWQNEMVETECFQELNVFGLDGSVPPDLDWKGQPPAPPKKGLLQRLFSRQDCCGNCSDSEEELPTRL
Sequence of IR(h) (human) (P06213 1005-1310 limits assumed): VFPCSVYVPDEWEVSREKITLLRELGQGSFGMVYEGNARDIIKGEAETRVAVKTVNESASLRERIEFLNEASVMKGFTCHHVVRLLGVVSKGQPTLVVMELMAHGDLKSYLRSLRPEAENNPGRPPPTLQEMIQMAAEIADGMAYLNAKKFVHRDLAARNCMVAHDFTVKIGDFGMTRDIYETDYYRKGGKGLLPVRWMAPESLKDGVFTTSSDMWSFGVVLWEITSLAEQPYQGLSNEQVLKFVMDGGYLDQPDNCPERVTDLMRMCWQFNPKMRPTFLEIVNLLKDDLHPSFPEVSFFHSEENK
Sequence of Fes(h) (human) (P07332 whole entry): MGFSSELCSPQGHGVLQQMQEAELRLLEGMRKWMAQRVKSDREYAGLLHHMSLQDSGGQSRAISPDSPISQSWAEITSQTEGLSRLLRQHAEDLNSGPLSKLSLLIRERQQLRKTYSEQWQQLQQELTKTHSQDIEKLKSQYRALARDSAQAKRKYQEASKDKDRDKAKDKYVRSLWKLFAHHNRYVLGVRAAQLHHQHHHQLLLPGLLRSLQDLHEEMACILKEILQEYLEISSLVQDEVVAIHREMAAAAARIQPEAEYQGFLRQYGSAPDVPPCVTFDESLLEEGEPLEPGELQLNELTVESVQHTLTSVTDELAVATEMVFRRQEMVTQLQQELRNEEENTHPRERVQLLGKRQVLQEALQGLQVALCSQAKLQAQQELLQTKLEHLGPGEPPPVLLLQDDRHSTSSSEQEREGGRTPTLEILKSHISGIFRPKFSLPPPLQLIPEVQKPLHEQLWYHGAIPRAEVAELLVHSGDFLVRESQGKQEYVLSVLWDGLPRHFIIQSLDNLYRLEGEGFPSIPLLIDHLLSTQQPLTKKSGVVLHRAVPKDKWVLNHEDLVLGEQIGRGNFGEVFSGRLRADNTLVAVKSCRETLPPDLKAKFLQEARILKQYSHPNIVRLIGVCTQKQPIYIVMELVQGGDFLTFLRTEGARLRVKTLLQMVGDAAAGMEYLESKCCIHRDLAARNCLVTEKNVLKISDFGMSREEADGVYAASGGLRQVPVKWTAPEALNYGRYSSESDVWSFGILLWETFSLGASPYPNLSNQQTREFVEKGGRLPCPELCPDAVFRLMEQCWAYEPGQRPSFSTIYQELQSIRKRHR
Sequence of SAPK2a(T106M)(h) (human) (Q16539 whole entry T106M): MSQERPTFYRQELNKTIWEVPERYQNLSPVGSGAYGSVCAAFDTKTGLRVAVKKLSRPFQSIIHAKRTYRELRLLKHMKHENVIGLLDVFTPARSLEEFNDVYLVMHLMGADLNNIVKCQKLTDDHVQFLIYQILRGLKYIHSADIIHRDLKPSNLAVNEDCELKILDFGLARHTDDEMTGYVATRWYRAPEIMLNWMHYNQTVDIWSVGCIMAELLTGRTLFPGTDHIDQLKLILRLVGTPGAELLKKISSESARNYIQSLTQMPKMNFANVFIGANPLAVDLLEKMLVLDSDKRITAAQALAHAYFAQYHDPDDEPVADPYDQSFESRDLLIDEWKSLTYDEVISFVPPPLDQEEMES
Sequence of MST1(h) (human) (Q13043 whole entry): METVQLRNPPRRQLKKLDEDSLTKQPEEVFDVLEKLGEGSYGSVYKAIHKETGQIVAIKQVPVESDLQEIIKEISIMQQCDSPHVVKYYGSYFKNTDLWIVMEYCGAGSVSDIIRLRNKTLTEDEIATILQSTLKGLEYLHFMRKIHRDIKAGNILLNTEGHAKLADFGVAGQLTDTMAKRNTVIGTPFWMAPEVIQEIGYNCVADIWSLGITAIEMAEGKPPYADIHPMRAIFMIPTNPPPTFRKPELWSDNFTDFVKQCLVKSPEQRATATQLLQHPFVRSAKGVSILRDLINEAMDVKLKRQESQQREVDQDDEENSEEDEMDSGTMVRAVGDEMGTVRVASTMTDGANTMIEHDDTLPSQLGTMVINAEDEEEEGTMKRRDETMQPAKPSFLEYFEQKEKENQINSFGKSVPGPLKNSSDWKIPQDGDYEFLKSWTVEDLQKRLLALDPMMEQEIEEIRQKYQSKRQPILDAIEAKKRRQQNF
Sequence of PhKγ2(h) (human) (P15735 whole entry): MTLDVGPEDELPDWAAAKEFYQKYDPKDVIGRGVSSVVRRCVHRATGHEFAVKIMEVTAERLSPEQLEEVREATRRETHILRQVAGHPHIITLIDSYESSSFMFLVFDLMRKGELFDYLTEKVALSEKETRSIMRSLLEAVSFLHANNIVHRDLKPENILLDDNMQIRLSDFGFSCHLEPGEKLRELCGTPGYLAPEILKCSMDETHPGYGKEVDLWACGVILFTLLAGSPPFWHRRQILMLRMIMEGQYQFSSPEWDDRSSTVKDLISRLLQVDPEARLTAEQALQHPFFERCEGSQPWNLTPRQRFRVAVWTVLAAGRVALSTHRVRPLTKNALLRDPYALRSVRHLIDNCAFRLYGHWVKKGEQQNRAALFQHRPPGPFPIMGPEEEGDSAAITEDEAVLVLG

MMI-0500 (peptide)
% activity [1]: 15%
% activity (GSK3β(h) (human)): 238%
% activity (MKK6(h) (human)): 18%
% activity (PKCβII(h) (human)): 3%
% activity (MSK2(h) (human)): 14%
% activity (eEF-2K(h) (human)): 43%
% activity (PrKX(h) (human)): 57%
% activity (SAPK3(h) (human)): 24%
% activity (cSRC(h) (human)): 30%
% activity (TSSK1(h) (human)): 46%
% activity [2]: 45%
% activity (EGFR(h) (human)): -1%
% activity (PDGFRα(h) (human)): 40%
% activity (Flt4(h) (human)): 73%
% activity (DMPK(h) (human)): 12%
% activity (Lyn(h) (human)): 31%
% activity (WNK2(h) (human)): 8%
% activity (Arg(h) (human)): 22%
% activity (EphB1(h) (human)): 37%
% activity (NEK11(h) (human)): 2%
% activity (Met(Y1248C)(h) (human)): 73%
% activity (JNK3(h) (human)): 171%
% activity (MLCK(h) (human)): 0%
% activity (BrSK2(h) (human)): 84%
% activity (BrSK1(h) (human)): 72%
% activity (IR(h) (human)): 95%
% activity (SAPK2a(T106M)(h) (human)): 32%
% activity (CaMKI(h) (human)): -1%
% activity (LKB1(h) (human)): 51%
% activity (Met(D1246N)(h) (human)): 90%
% activity (TLK2(h) (human)): 133%
% activity (CDK5/p25(h) (human)): 66%
% activity (BTK(h) (human)): 18%
% activity (MST1(h) (human)): 3%
% activity (VRK2(h) (human)): 169%
% activity (Hck(h) (human)): 78%
% activity (EGFR(L858R)(h) (human)): 26%
% activity (SIK(h) (human)): 40%
% activity (PKCτ(h) (human)): 7%
% activity (MARK1(h) (human)): 110%
% activity (Fms(h) (human)): 14%
% activity (SGK2(h) (human)): -1%
% activity (PKCε(h) (human)): 23%
% activity (LOK(h) (human)): 7%
% activity (MSSK1(h) (human)): 22%
% activity (BTK(R28H)(h) (human)): 10%
% activity (CaMKIIβ(h) (human)): 3%
% activity (Fer(h) (human)): 196%
% activity (MuSK(h) (human)): 27%
% activity (PKCµ(h) (human)): 10%
% activity (Met(Y1248H)(h) (human)): 126%
% activity (PhKγ2(h) (human)): 16%
% activity (GRK6(h) (human)): 174%
% activity (Haspin(h) (human)): 25%
% activity (Fes(h) (human)): 23%
% activity (JNK2α2(h) (human)): 81%
% activity (MST3(h) (human)): 4%

MMI-0200 (peptide)
% activity [1]: 67%
% activity (GSK3β(h) (human)): 132%
% activity (MKK6(h) (human)): 98%
% activity (PKCβII(h) (human)): 100%
% activity (MSK2(h) (human)): 88%
% activity (eEF-2K(h) (human)): 136%
% activity (PrKX(h) (human)): 112%
% activity (SAPK3(h) (human)): 97%
% activity (cSRC(h) (human)): 32%
% activity (TSSK1(h) (human)): 98%
% activity [2]: 94%
% activity (EGFR(h) (human)): 83%
% activity (PDGFRα(h) (human)): 108%
% activity (Flt4(h) (human)): 105%
% activity (DMPK(h) (human)): 66%
% activity (Lyn(h) (human)): 98%
% activity (WNK2(h) (human)): 94%
% activity (Arg(h) (human)): 82%
% activity (EphB1(h) (human)): 95%
% activity (NEK11(h) (human)): 95%
% activity (Met(Y1248C)(h) (human)): 141%
% activity (JNK3(h) (human)): 90%
% activity (MLCK(h) (human)): 103%
% activity (BrSK2(h) (human)): 102%
% activity (BrSK1(h) (human)): 93%
% activity (IR(h) (human)): 90%
% activity (SAPK2a(T106M)(h) (human)): 100%
% activity (CaMKI(h) (human)): 21%
% activity (LKB1(h) (human)): 99%
% activity (Met(D1246N)(h) (human)): 149%
% activity (TLK2(h) (human)): 129%
% activity (CDK5/p25(h) (human)): 97%
% activity (BTK(h) (human)): 100%
% activity (MST1(h) (human)): 72%
% activity (VRK2(h) (human)): 109%
% activity (Hck(h) (human)): 107%
% activity (EGFR(L858R)(h) (human)): 120%
% activity (SIK(h) (human)): 102%
% activity (PKCτ(h) (human)): 97%
% activity (MARK1(h) (human)): 102%
% activity (Fms(h) (human)): 92%
% activity (SGK2(h) (human)): 119%
% activity (PKCε(h) (human)): 98%
% activity (LOK(h) (human)): 67%
% activity (MSSK1(h) (human)): 100%
% activity (BTK(R28H)(h) (human)): 104%
% activity (CaMKIIβ(h) (human)): 53%
% activity (Fer(h) (human)): 101%
% activity (MuSK(h) (human)): 106%
% activity (PKCµ(h) (human)): 73%
% activity (Met(Y1248H)(h) (human)): 153%
% activity (PhKγ2(h) (human)): 86%
% activity (GRK6(h) (human)): 132%
% activity (Haspin(h) (human)): 71%
% activity (Fes(h) (human)): 74%
% activity (JNK2α2(h) (human)): 109%
% activity (MST3(h) (human)): 95%

MMI-0100 (peptide)
% activity [1]: 89%
% activity (GSK3β(h) (human)): 113%
% activity (MKK6(h) (human)): 74%
% activity (PKCβII(h) (human)): 102%
% activity (MSK2(h) (human)): 105%
% activity (eEF-2K(h) (human)): 113%
% activity (PrKX(h) (human)): 84%
% activity (SAPK3(h) (human)): 106%
% activity (cSRC(h) (human)): 70%
% activity (TSSK1(h) (human)): 99%
% activity [2]: 126%
% activity (EGFR(h) (human)): 95%
% activity (PDGFRα(h) (human)): 104%
% activity (Flt4(h) (human)): 135%
% activity (DMPK(h) (human)): 60%
% activity (Lyn(h) (human)): 113%
% activity (WNK2(h) (human)): 95%
% activity (Arg(h) (human)): 89%
% activity (EphB1(h) (human)): 99%
% activity (NEK11(h) (human)): 102%
% activity (Met(Y1248C)(h) (human)): 77%
% activity (JNK3(h) (human)): 104%
% activity (MLCK(h) (human)): 85%
% activity (BrSK2(h) (human)): 129%
% activity (BrSK1(h) (human)): 100%
% activity (IR(h) (human)): 112%
% activity (SAPK2a(T106M)(h) (human)): 101%
% activity (CaMKI(h) (human)): 13%
% activity (LKB1(h) (human)): 111%
% activity (Met(D1246N)(h) (human)): 114%
% activity (TLK2(h) (human)): 113%
% activity (CDK5/p25(h) (human)): 114%
% activity (BTK(h) (human)): 112%
% activity (MST1(h) (human)): 85%
% activity (VRK2(h) (human)): 112%
% activity (Hck(h) (human)): 354%
% activity (EGFR(L858R)(h) (human)): 76%
% activity (SIK(h) (human)): 113%
% activity (PKCτ(h) (human)): 110%
% activity (MARK1(h) (human)): 109%
% activity (Fms(h) (human)): 89%
% activity (SGK2(h) (human)): 103%
% activity (PKCε(h) (human)): 102%
% activity (LOK(h) (human)): 37%
% activity (MSSK1(h) (human)): 82%
% activity (BTK(R28H)(h) (human)): 91%
% activity (CaMKIIβ(h) (human)): 58%
% activity (Fer(h) (human)): 117%
% activity (MuSK(h) (human)): 85%
% activity (PKCµ(h) (human)): 79%
% activity (Met(Y1248H)(h) (human)): 88%
% activity (PhKγ2(h) (human)): 62%
% activity (GRK6(h) (human)): 131%
% activity (Haspin(h) (human)): 127%
% activity (Fes(h) (human)): 44%
% activity (JNK2α2(h) (human)): 114%
% activity (MST3(h) (human)): 104%
